According to IntAct's records for PubMed 26886794:

B1: Histone-lysine N-methyltransferase SETD1B (Homo sapiens), Q9UPS6-2 (parent)
chain: MENSHPPHHHHQQPPPQPGPSGERRNHHWRSYKLMIDPALKKGHHKLYRYDGQHFSLAMSSNRPVEIVEDPRVVGIWTKNKELELSVPKFKIDEFYVGPVPPKQVTFAKLNDNIRENFLRDMCKKYGEVEEVEILYNPKTKKHLGIAKVVFATVRGAKDAVQHLHSTSVMGNIIHVELDTKGETRMRFYELLVTGRYTPQTLPVGELDAVSPIVNETLQLSDALKRLKDGGLSAGCGSGSSSVTPNSGGTPFSQDTAYSSCRLDTPNSYGQGTPLTPRLGTPFSQDSSYSSRQPTPSYLFSQDPAVTFKARRHESKFTDAYNRRHEHHYVHNSPAVTAVAGATAAFRGSSDLPFGAVGGTGGSSGPPFKAQPQDSATFAHTPPPAQATPAPGFKSAFSPYQTPVAHFPPPPEEPTATAAFGARDSGEFRRAPAPPPLPPAEPLAKEKPGTPPGPPPPDTNSMELGGRPTFGWSPEPCDSPGTPTLESSPAGPEKPHDSLDSRIEMLLKEQRTKLLFLREPDSDTELQMEGSPISSSSSQLSPLAPFGTNSQPGFRGPTPPSSRPSSTGLEDISPTPLPDSDEDEELDLGLGPRPPPEPGPPDPAGLLSQTAEVALDLVGDRTPTSEKMDEGQQSSGEDMEISDDEMPSAPITSADCPKPMVVTPGAAAVAAPSVLAPTLPLPPPPGFPPLPPPPPPPPPQPGFPMPPPLPPPPPPPPPAHPAVTVPPPPLPAPPGVPPPPILPPLPPFPPGLFPVMQVDMSHVLGGQWGGMPMSFQMQTQVLSRLMTGQGACPYPPFMAAAAAAASAGLQFVNLPPYRGPFSLSNSGPGRGQHWPPLPKFDPSVPPPGYMPRQEDPHKATVDGVLLVVLKELKAIMKRDLNRKMVEVVAFRAFDEWWDKKERMAKASLTPVKSGEHKDEDRPKPKDRIASCLLESWGKGEGLGYEGLGLGIGLRGAIRLPSFKVKRKEPPDTTSSGDQKRLRPSTSVDEEDEESERERDRDMADTPCELAKRDPKGVGVRRRPARPLELDSGGEEDEKESLSEEQESTEEEEEAEEEEEEEDDDDDDSDDRDESENDDEDTALSEASEKDEGDSDEEETVSIVTSKAEATSSSESSESSEFESSSESSPSSSEDEEEVVAREEEEEEEEEEMVAEESMASAGPEDFEQDGEEAALAPGAPAVDSLGMEEEVDIETEAVAPEERPSMLDEPPLPVGVEEPADSREPPEEPGLSQEGAMLLSPEPPAKEVEARPPLSPERAPEHDLEVEPEPPMMLPLPLQPPLPPPRPPRPPSPPPEPETTDASHPSVPPEPLAEDHPPHTPGLCGSLAKSQSTETVPATPGGEPPLSGGSSGLSLSSPQVPGSPFSYPAPSPSLSSGGLPRTPGRDFSFTPTFSEPSGPLLLPVCPLPTGRRDERSGPLASPVLLETGLPLPLPLPLPLPLALPAVLRAQARAPTPLPPLLPAPLASCPPPMKRKPGRPRRSPPSMLSLDGPLVRPPAGAALGRELLLLPGQPQTPVFPSTHDPRTVTLDFRNAGIPAPPPPLPPQPPPPPPPPPVEPTKLPFKELDNQWPSEAIPPGPRGRDEVTEEYMELAKSRGPWRRPPKKRHEDLVPPAGSPELSPPQPLFRPRSEFEEMTILYDIWNGGIDEEDIRFLCVTYERLLQQDNGMDWLNDTLWVYHPSTSLSSAKKKKRDDGIREHVTGCARSEGFYTIDKKDKLRYLNSSRASTDEPPADTQGMSIPAQPHASTRAGSERRSEQRRLLSSFTGSCDSDLLKFNQLKFRKKKLKFCKSHIHDWGLFAMEPIAADEMVIEYVGQNIRQVIADMREKRYEDEGIGSSYMFRVDHDTIIDATKCGNFARFINHSCNPNCYAKVITVESQKKIVIYSKQHINVNEEITYDYKFPIEDVKIPCLCGSENCRGTLN

Variants of: B1
Conditions: with ASH2L

| Variant | effect of a mutation on the interaction |
| --- | --- |
| R1819A | disrupting interaction strength |
